Measurements published in patent US20180037645A1.
Like-named read-outs stand apart in the source and are kept apart here.

How the values were obtained:
[1] = biological target: IL-23 alanine shave mutant M10 (human) (UniProt P29460); assay: cell-based or functional assay
[2] = biological target: IL-23 alanine shave mutant M5 (human) (UniProt P29460); assay: cell-based or functional assay
[3] = biological target: IL-23 alanine shave mutant M7 (human) (UniProt P29460); assay: cell-based or functional assay
[4] = biological target: IL-23 alanine shave mutant M9 (human) (UniProt P29460); assay: cell-based or functional assay
[5] = biological target: wild-type IL-23 (His-tagged p19 / non-tagged p40) (human) (UniProt P29460); assay: cell-based or functional assay
IL-23 D118A (human) [6] = biological target: IL-23 D118A (human) (UniProt P29460); assay: cell-based or functional assay
IL-23 D55A (human) [7] = biological target: IL-23 D55A (human) (UniProt P29460); assay: cell-based or functional assay
IL-23 E112A (human) [8] = biological target: IL-23 E112A (human) (UniProt P29460); assay: cell-based or functional assay
IL-23 H53A (human) [9] = biological target: IL-23 H53A (human) (UniProt P29460); assay: cell-based or functional assay
IL-23 L116A (human) [10] = biological target: IL-23 L116A (human) (UniProt P29460); assay: cell-based or functional assay
IL-23 M54A (human) [11] = biological target: IL-23 M54A (human) (UniProt P29460); assay: cell-based or functional assay
[12] = biological target: wild-type IL-23 (His-tagged p19 / non-tagged p40) (human) (UniProt P29460); assay: cell-based or functional assay; remark: listed apart in the source
IL-23 D118A (human) [13] = biological target: IL-23 D118A (human) (UniProt P29460); assay: SPR (Biacore T100), antibody captured by protein A
IL-23 D55A (human) [14] = biological target: IL-23 D55A (human) (UniProt P29460); assay: SPR (Biacore T100), antibody captured by protein A
IL-23 E112A (human) [15] = biological target: IL-23 E112A (human) (UniProt P29460); assay: SPR (Biacore T100), antibody captured by protein A
IL-23 H53A (human) [16] = biological target: IL-23 H53A (human) (UniProt P29460); assay: SPR (Biacore T100), antibody captured by protein A
IL-23 L116A (human) [17] = biological target: IL-23 L116A (human) (UniProt P29460); assay: SPR (Biacore T100), antibody captured by protein A
IL-23 M54A (human) [18] = biological target: IL-23 M54A (human) (UniProt P29460); assay: SPR (Biacore T100), antibody captured by protein A
[19] = biological target: IL-23 alanine shave mutant M10 (human) (UniProt P29460); assay: SPR (Biacore T100), antibody captured by protein A
[20] = biological target: IL-23 alanine shave mutant M5 (human) (UniProt P29460); assay: SPR (Biacore T100), antibody captured by protein A
[21] = biological target: IL-23 alanine shave mutant M7 (human) (UniProt P29460); assay: SPR (Biacore T100), antibody captured by protein A
[22] = biological target: IL-23 alanine shave mutant M9 (human) (UniProt P29460); assay: SPR (Biacore T100), antibody captured by protein A

Chain of IL-23 M54A (human) (chain, as listed by the source M54A M54A, chain 1 of 2): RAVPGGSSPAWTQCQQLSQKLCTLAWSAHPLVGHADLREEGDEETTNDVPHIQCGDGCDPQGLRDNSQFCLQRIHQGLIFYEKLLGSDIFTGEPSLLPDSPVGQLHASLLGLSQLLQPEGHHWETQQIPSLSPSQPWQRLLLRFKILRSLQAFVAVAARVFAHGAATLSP
Chain of IL-23 M54A (human) (P29460 23-328, chain 2 of 2): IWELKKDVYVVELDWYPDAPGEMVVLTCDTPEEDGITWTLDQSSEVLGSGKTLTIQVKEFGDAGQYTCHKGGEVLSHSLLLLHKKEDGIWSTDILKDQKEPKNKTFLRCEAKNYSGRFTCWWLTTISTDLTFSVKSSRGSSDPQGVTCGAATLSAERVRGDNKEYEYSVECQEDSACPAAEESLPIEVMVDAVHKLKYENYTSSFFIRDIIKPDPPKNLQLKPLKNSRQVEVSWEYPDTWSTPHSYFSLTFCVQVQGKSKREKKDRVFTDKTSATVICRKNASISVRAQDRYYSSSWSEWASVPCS
Chain of IL-23 H53A (human) (chain, as listed by the source H53A H53A, chain 1 of 2): as the sequence (chain, as listed by the source M54A M54A, chain 1 of 2) above, with H34A, A35M counted along it
Chain of IL-23 H53A (human) (P29460 23-328, chain 2 of 2): as the sequence (P29460 23-328, chain 2 of 2) above
Chain of IL-23 E112A (human) (chain, as listed by the source E112A E112A, chain 1 of 2): as the sequence (chain, as listed by the source M54A M54A, chain 1 of 2) above, with A35M, E93A counted along it
Chain of IL-23 E112A (human) (P29460 23-328, chain 2 of 2): as the sequence (P29460 23-328, chain 2 of 2) above
Chain of wild-type IL-23 (His-tagged p19 / non-tagged p40) (human) (chain, as listed by the source limits assumed, chain 1 of 2): as the sequence (chain, as listed by the source M54A M54A, chain 1 of 2) above, with A35M counted along it
Chain of wild-type IL-23 (His-tagged p19 / non-tagged p40) (human) (P29460 23-328 limits assumed, chain 2 of 2): as the sequence (P29460 23-328, chain 2 of 2) above
Chain of IL-23 alanine shave mutant M9 (human) (chain, as listed by the source mutant limits assumed, form in doubt, chain 1 of 2): as the sequence (chain, as listed by the source M54A M54A, chain 1 of 2) above, with A35M, L97A, D99A, Q104A counted along it
Chain of IL-23 alanine shave mutant M9 (human) (P29460 23-328 limits assumed, change not shown, form in doubt, chain 2 of 2): as the sequence (P29460 23-328, chain 2 of 2) above
Chain of IL-23 alanine shave mutant M7 (human) (chain, as listed by the source mutant limits assumed, form in doubt, chain 1 of 2): as the sequence (chain, as listed by the source M54A M54A, chain 1 of 2) above, with A35M, W123A, E124A, T125A, Q126A, Q127A counted along it
Chain of IL-23 alanine shave mutant M7 (human) (P29460 23-328 limits assumed, change not shown, form in doubt, chain 2 of 2): as the sequence (P29460 23-328, chain 2 of 2) above
Chain of IL-23 D118A (human) (chain, as listed by the source D118A D118A, chain 1 of 2): as the sequence (chain, as listed by the source M54A M54A, chain 1 of 2) above, with A35M, D99A counted along it
Chain of IL-23 D118A (human) (P29460 23-328, chain 2 of 2): as the sequence (P29460 23-328, chain 2 of 2) above
Chain of IL-23 alanine shave mutant M10 (human) (chain, as listed by the source mutant limits assumed, form in doubt, chain 1 of 2): as the sequence (chain, as listed by the source M54A M54A, chain 1 of 2) above, with H34A, D36A, F144A counted along it
Chain of IL-23 alanine shave mutant M10 (human) (P29460 23-328 limits assumed, change not shown, form in doubt, chain 2 of 2): as the sequence (P29460 23-328, chain 2 of 2) above
Chain of IL-23 L116A (human) (chain, as listed by the source L116A L116A, chain 1 of 2): as the sequence (chain, as listed by the source M54A M54A, chain 1 of 2) above, with A35M, L97A counted along it
Chain of IL-23 L116A (human) (P29460 23-328, chain 2 of 2): as the sequence (P29460 23-328, chain 2 of 2) above
Chain of IL-23 D55A (human) (chain, as listed by the source D55A D55A, chain 1 of 2): as the sequence (chain, as listed by the source M54A M54A, chain 1 of 2) above, with A35M, D36A counted along it
Chain of IL-23 D55A (human) (P29460 23-328, chain 2 of 2): as the sequence (P29460 23-328, chain 2 of 2) above
Chain of IL-23 alanine shave mutant M5 (human) (chain, as listed by the source mutant limits assumed, form in doubt, chain 1 of 2): as the sequence (chain, as listed by the source M54A M54A, chain 1 of 2) above, with H34A, E93A, L97A, D99A counted along it
Chain of IL-23 alanine shave mutant M5 (human) (P29460 23-328 limits assumed, change not shown, form in doubt, chain 2 of 2): as the sequence (P29460 23-328, chain 2 of 2) above

| IC50, pSTAT3 in BaF3/huIL-23Rα/huIL-12Rβ1 transfectants [1] | IC50, pSTAT3 in BaF3/huIL-23Rα/huIL-12Rβ1 transfectants [3] | IC50, pSTAT3 in BaF3/huIL-23Rα/huIL-12Rβ1 transfectants [4] | IC50, pSTAT3 in BaF3/huIL-23Rα/huIL-12Rβ1 transfectants [5] | IC50, pSTAT3 in BaF3/huIL-23Rα/huIL-12Rβ1 transfectants (IL-23 D118A (human) [6]) | IC50, pSTAT3 in BaF3/huIL-23Rα/huIL-12Rβ1 transfectants (IL-23 D55A (human) [7]) | IC50, pSTAT3 in BaF3/huIL-23Rα/huIL-12Rβ1 transfectants (IL-23 E112A (human) [8]) | IC50, pSTAT3 in BaF3/huIL-23Rα/huIL-12Rβ1 transfectants (IL-23 H53A (human) [9]) | IC50, pSTAT3 in BaF3/huIL-23Rα/huIL-12Rβ1 transfectants (IL-23 L116A (human) [10]) | IC50, pSTAT3 in BaF3/huIL-23Rα/huIL-12Rβ1 transfectants (IL-23 M54A (human) [11]) | IC50, pSTAT3 in BaF3/huIL-23Rα/huIL-12Rβ1 transfectants [12] | Substance | other results |
| --- | --- | --- | --- | --- | --- | --- | --- | --- | --- | --- | --- | --- |
| 71 pM | 59 pM | 67 pM | 79 pM | 52 pM | 77 pM | 33 pM | 78 pM | 54 pM | 81 pM | 67 pM | STELARA® (ustekinumab, IL-12/IL-23 p40 mAb) (antibody) | IC50, pSTAT3 in BaF3/huIL-23Rα/huIL-12Rβ1 transfectants [2]: 62 pM; ΔΔG (IL-23 D118A (human) [13]): -0.3 kcal/mol; ΔΔG (IL-23 D55A (human) [14]): 0.5 kcal/mol; ΔΔG (IL-23 E112A (human) [15]): 0.3 kcal/mol; ΔΔG (IL-23 H53A (human) [16]): 0.3 kcal/mol; ΔΔG (IL-23 L116A (human) [17]): 0.5 kcal/mol; ΔΔG (IL-23 M54A (human) [18]): 0.3 kcal/mol; ΔΔG [19]: 0.3 kcal/mol; ΔΔG [20]: 0.1 kcal/mol; ΔΔG [21]: 0.1 kcal/mol; ΔΔG [22]: 0.1 kcal/mol |
| 350 pM | 310 pM | 260 pM | 380 pM | 0.22 nM | 0.18 nM | > 3 nM | 0.19 nM | 0.24 nM | 0.27 nM | 0.18 nM | Merck's IL-23 p19 mAb (7G10) (antibody) | – |
